Test results reported in the supplement of paper PMC10567573.

B1: AUP1 (parent)
chain: EGLLRFSSWPFSIQDVVQPLTLQV
B2: LOXL2 (parent)
chain: RLLRFSSQIHNNGQSDFRPKNGRH

Variants of: B1
Assay: protein stability index of a GFP-peptide fusion (GPS, HEK-293T) (PSI 1-6); higher = more stable
Details: c terminus: a fixed tail appended
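Also: lentivirally expressed fusions sorted by FACS into six bins by GFP to DsRed ratio, PSI derived from sequencing read proportions per bin multiplied by bin number.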

Protein stability index of substitutions, site by site:
D15: Y 2.41, M 2.12, Q 3.59, N 2.13, L 2.63, I 1.3, K 1.48
V24: N 1.59, T 1.45, R 2.75, W 2.53, C 2.23, G 2.14, K 2.17, I 2.38, E 2.06, S 1.79, M 5.7, F 3.48, Q 1.53, L 2.77, Y 3.1, P 1.57, A 2.15, D 1.97
V16: K 2.57, L 1.28, C 3.11, T 3.01, D 1.08, I 2.78, P 3.33, H 3.18, E 1.09, S 4.02
Q18: E 2.6, H 2.53, A 2.25, Y 4.33
L22: P 1.52, H 1.75, G 1.6, I 2.13, V 2.62, A 1.68, K 1.76, T 2.47, N 1.27, F 3.96, C 1.85, E 2.15, D 2.61, Q 2.11, Y 2.16, S 1.85
Q23: E 2.65, P 1.45, G 1.4, K 1.59, A 3.02, R 2.91, D 1.81, M 3.98, S 1.4, H 1.98, Y 2.82, C 1.61, L 3.58
T21: E 2.9, L 4.97, G 5.2, D 1.58, N 1.74, S 3.58, Q 2.63, P 1.8, C 1.52, V 2.81
P19: W 1.56, L 4.13, S 4.01, I 2.96
L20: D 1.98, R 1.24, H 1.22, E 1.89, A 1.65, K 1.19, S 2.4, T 1.73, I 5.25, N 1.54, P 1.63, Q 2.28
V17: K 2.35, D 1.37, E 1.38, F 2.53, H 3.15, C 3.22, N 2.03

Variants of: B2
Assay: as above
Details: c terminus: a fixed tail appended

Protein stability index of substitutions, site by site:
R1: N 2.65, I 1.78, V 1.89, Q 2.48, S 2.58, Y 1.71, A 2.41, K 3.15, L 1.72, E 2.41, D 2.97, H 2.67, C 2.78, T 2.57, P 4.01, W 1.65, G 3.12, M 2.66, F 1.17
L2: K 3.91, V 3.52, R 4.07, Q 4.12, G 4.6, F 2.82, M 3.27, N 4.58, T 4.69, W 2.71, S 4.59, C 3.82, I 3.28, E 3.98, P 4.63, A 3.68, D 4.51, Y 3.35, H 4.21
R4: A 2.87, H 2.74, C 2.87, E 2.87, G 3.51, K 2.27, F 2.32, D 3.16, I 2.48
L3: G 3.63, N 3.98, F 3.05, P 3.91, M 3.37, H 3.79, Y 3.44, A 3.59, V 3.44, Q 3.99, S 3.77, W 2.64, I 3.14, R 3.81, E 4.34, D 3.98, T 3.95, C 2.88, K 3.84
